Here are results for 1 substance from patent US20020127645A1.

The assay has as its target dimeric mouse-human chimeric IgA1 specific for the hapten dansyl (human) (UniProt P01876). In words: densitometry of secreted proteins after immunoprecipitation and SDS-PAGE.
UniProt P01876, sequence (P01876 other isoform, or with tags, fused parts or gaps mutant, chain 1 of 2, other chains not shown): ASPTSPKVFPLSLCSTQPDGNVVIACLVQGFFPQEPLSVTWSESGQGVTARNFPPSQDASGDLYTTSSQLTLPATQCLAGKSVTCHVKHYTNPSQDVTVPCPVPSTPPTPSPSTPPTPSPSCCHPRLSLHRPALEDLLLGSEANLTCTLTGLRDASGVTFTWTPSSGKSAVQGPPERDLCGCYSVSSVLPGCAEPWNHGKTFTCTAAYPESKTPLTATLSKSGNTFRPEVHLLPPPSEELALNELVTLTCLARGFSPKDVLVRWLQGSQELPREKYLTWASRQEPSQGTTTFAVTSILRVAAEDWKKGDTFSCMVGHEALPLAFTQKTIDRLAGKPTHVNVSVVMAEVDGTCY

The substance “human secretory component (SC), ectoplasmic domain of the human polymeric Ig receptor (pIgR) ending at Glu589 (from UniProt P01833 19-607)” yielded a α chains per molecule of SC (stoichiometry) (α chains per SC) of 4.
